For test [1], the target named is Influenza B nucleoprotein (strain B/Memphis/13/03) (influenza B virus, strain B/Memphis/13/03). Briefly: negative stain electron microscopy.
Test [2] has the same target. The test can be described thus: SEC-MALLS.

Several values for one entry are separate records, joined by “and”; a condition that tells them apart may be missing. Equal entries are not always repeated.

As a reminder, the stoichiometry N is a count of units in the complex or per binding partner. On to “Influenza B nucleoprotein (strain B/Memphis/13/03) (natural protein)”, for which the stoichiometry N was 2 and 4 and 5 in test [1]; 5 and 2 and 4 in test [2].

The record behind these values is publication PMC5035961.
